Legend:
[1] = target: T1, module 2+TE (Saccharopolyspora erythraea, UniProt Q03131+Q03133); conditions: diffusive loading, shown earlier; cited from earlier work
T1 construct: a single module of the DEBS PKS fused to the thioesterase (TE) termination region of module 6; made in house; host or cells: E. coli BL21(DE3) co-expressing B. subtilis sfp

[2] = target: T2, module 6+TE (Saccharopolyspora erythraea, UniProt Q03133, DEL53-1503); conditions: diffusive loading, shown earlier; cited from earlier work
T2 construct: a single module of the DEBS PKS fused to the thioesterase (TE) termination region of module 6; made in house; host or cells: E. coli BL21(DE3) co-expressing B. subtilis sfp

[3] = target: T3, (5)M3+TE (Saccharopolyspora erythraea, UniProt Q03132+Q03133); conditions: previously shown; cited from earlier work
T3 construct: (5)M3+TE: module 3 with N-terminal linker from module 5; N-terminal interpolypeptide linker of DEBS module 5 (start of DEBS3, Q03133); His6 (C); made in house; host or cells: E. coli BL21(DE3) co-expressing B. subtilis sfp

[4] = target: T4, (3)M3+TE (Saccharopolyspora erythraea, UniProt Q03132+Q03133); conditions: previously shown; cited from earlier work
T4 construct: encodes module 3 of DEBS (M3) with its own N-terminal linker and with the thioesterase fused to the C-terminus; natural N-terminal interpolypeptide linker of module 3 (start of DEBS2, ahead of the Module 3 feature); His6 (C); made in house; host or cells: E. coli BL21(DE3) co-expressing B. subtilis sfp

[5] = tested on: (5)M2+TE, (5)M5+TE, and (5)M6+TE; conditions: Wu et al. 2000; cited from earlier work
[6] = target: T5, module 5+TE (Saccharopolyspora erythraea, UniProt Q03133); conditions: diffusive loading, shown earlier; cited from earlier work
T5 construct: a single module of the DEBS PKS fused to the thioesterase (TE) termination region of module 6; thioesterase (TE) domain of DEBS (end of the same DEBS3 polypeptide); made in house; host or cells: E. coli BL21(DE3) co-expressing B. subtilis sfp

[7] = tested on: (5)M2+TE, (5)M5+TE, and (5)M6+TE; assay: Diketide incorporation, statements made for all three modules together; format: biochemical; conditions: control studies, data not shown
Method: Qualitative Substrate Incorporation Assays. The reaction buffer for the diketide incorporation assays contained 400 mM NaH2PO4 (pH 7.2), 2.5 mM DTT, 1 mM ETDA, 20% glyercol (reaction buffer C). 1 μM module, 20 μM acyl-ACP, 500 μMDL-[2-^14C]-methylmalonyl CoA (ARC), and 4 mM NADPH (Sigma) were incubated in 20 μL of the reaction buffer at 30° C. for 1.5 h. The reactions were either spotted directly onto a TLC plate (Whatman 250 μM silica gel, UV254), or first extracted with EtOAc followed by spotting of the organic extracts on a TLC plate. The TLC plates were resolved using 60% EtOAc in hexanes, and the radioactive products were visualized on a Packard InstantImager.
Determination of kcat Values. […] To quench the reactions, 20 μL reaction aliquots were mixed with 80 μL of 12.5% SDS. kcat values for the acyl-ACP substrates were determined by measuring steady-state saturating rates at multiple substrate concentrations (varying from 40 to 90 μM 4). […]
Qualitative Assays of Diketide Incorporation by Acyl-ACPs. […] 2000, 122, 4847-4852 (It should be noted that elongation of 4c and 4d by modules 5+TE and 6+TE yielded minor quantities of unreduced triketide lactones, indicating less efficient β-ketoreductase activity on these two anti-diketide substrates than on the two syn-diketide substrates.). […]

[8] = target: T6, M2 and M3+TE (Saccharopolyspora erythraea); assay: Inhibition of tetraketide production by synthetic peptide, M2-M3 linker pair; format: biochemical; conditions: peptide 1 to 100 μM, 1.0 μM M2 and M3+TE
T6 construct: Plasmid pBP19 contains module 2 of DEBS (M2) and is a derivative of pRSG64; made in house; host or cells: E. coli BL21(DE3) co-expressing B. subtilis sfp
Method: (§1) Inhibition of Tetraketide Production. The ability of the synthetic peptide to inhibit the transfer reaction, and thus the production of tetraketide, was tested under the same reaction conditions described for the two module coincubations. The concentrations of M2 and M3+TE were both 1.0 μM, and the concentrations of M2(4) and (5)M3+TE were 0.5 and 1.0 μM, respectively. The only difference was the addition of the peptide at concentrations ranging from 1 to 100 μM to the assay containing M2 and M3+TE [or alternatively M2(4) and (5)M3+TE]. For greater accuracy, each inhibition assay was performed side by side with a control lacking inhibitor. The effect of the inhibitor was thus determined by dividing the inhibited rate by the control rate.

[9] = target: T7, individually assayed modules, including M3+TE (Saccharopolyspora erythraea, UniProt Q03132+Q03133); assay: Effect of synthetic peptide on individually assayed modules; format: biochemical
T7 construct: encodes module 3 of DEBS (M3) with its own N-terminal linker and with the thioesterase fused to the C-terminus; natural N-terminal interpolypeptide linker of module 3 (start of DEBS2, ahead of the Module 3 feature); His6 (C); made in house; host or cells: E. coli BL21(DE3) co-expressing B. subtilis sfp
Method: In Vitro Polyketide Production. Assays of individual modules contained 1.0 μM protein, 1-10 mM N-acetylcysteamine thioester of the “natural” (2S,3R)-2-methyl-3-hydroxypentanoic acid diketide (NDK) (1), 4 mM NADPH, 440 mM sodium phosphate, 1 mM EDTA, 2.5 mM dithiothreitol (DTT), and 20% w/v glycerol, pH 7.2, in 80 μL. Reactions with M2 or M2(4) included 0.3 mM ^14C-methylmalonyl-CoA (specific activity adjusted to 10.4 mCi/mmol), and those with M3+TE or (5)M3+TE included 0.5 mM ^14C-methylmalonyl-CoA (specific activity reduced to 1.1 mCi/mmol). [M2(4) refers to a derivative of M2 in which the C-terminal linker has been replaced with its counterpart from module 4, whereas (5)M3 refers to a derivative of M3 in which the N-terminal linker has been replaced with its counterpart from module 5 (see FIG. 4).] Both concentrations of methylmalonyl-CoA were saturating, but different concentrations were needed due to the disparate rates of turnover between the modules with and without the thioesterase. The reaction mixtures were preincubated to 30° C. and started with the addition of the methylmalonyl-CoA. […] Product formation was quantified by comparison with standards of the labeled methylmalonyl-CoA. […]

[10] = CD spectroscopy of the M3 N-terminal peptide; format: physicochemical
Method: CD Spectroscopy. The CD spectrum of the M3 N-terminal peptide was recorded in a 1-mm path-length cell at a sample concentration of 100 μM in phosphate-buffered saline (PBS; 0.15 M KCl, 25 mM phosphate, pH 6.9). Measurements were made using an Aviv 62DS spectropolarimeter. Concentration was determined by tyrosine absorbance at 275 nm in 8 M guanidine hydrochloride.

[11] = target: T8, M2(4) and (5)M3+TE (Saccharopolyspora erythraea, UniProt Q03131+Q03132); assay: Inhibition of tetraketide production by synthetic peptide, M4-M5 linker pair; format: biochemical; conditions: peptide concentrations up to 100 μM
T8 construct: Plasmid pST179 encodes a derivative of M2 containing the C-terminal linker of DEBS module 4 (M4); made in house; host or cells: E. coli BL21(DE3) co-expressing B. subtilis sfp
Method: as §1

[12] = listed as N-terminal linker of module 3
[13] = listed as synthetic peptide mimic of the N-terminal linker of M3

CCC(O)C(C)C(=O)SCCNC(C)=O (stereo not drawn) [2a]
kcat, NAC thioester substrate [1]: 0.0767 s⁻¹ | kcat, NAC thioester substrate [2]: 0.283 s⁻¹ | incorporation of NAC thioester (qualitative) [3]: readily incorporated and elongated | incorporation of NAC thioester (qualitative) [4]: readily incorporated and elongated | incorporation of NAC thioester (qualitative) [5]: substrates for the three modules | kcat (elongation rate constant), NAC thioester substrate [6]: 0.00417 s⁻¹

CCC(O)C(C)C(=O)SCCNC(=O)CCNC(=O)C(O)C(C)(C)COP(=O)(O)OP(=O)(O)OCC1OC(n2cnc3c(N)ncnc32)C(O)C1OP(=O)(O)O (stereo not drawn) [5a]
CoA thioester compared with NAC thioester 2a as substrate [7]: approximately equivalent substrates

H2N-MTDSEKVAEYLRRATLDLRAARQRIRELESD-amide (H-MTDSEKVAEYLRRATLDLRAARQRIRELESD-NH2) [M3 N-term]
inhibition of tetraketide lactone 2 formation [8, 12]: could inhibit the formation of 2 | inhibition of tetraketide lactone 2 formation ([8]; listed as peptide corresponding to the N-terminal linker of module 3): shown to inhibit the formation of tetraketide lactone 2 | inhibition of tetraketide lactone 2 formation [8, 13]: lowered the overall rate of tetraketide production in a dose-dependent fashion | inhibitory effect upon individually assayed modules [9]: no inhibitory effect | helical content ([10]; 100 μM in PBS pH 6.9, listed as N-terminal linker peptide of M3): approximately 50% | helical content ([10]; 100 μM in PBS pH 6.9, listed as peptide mimic): ca. 50% | inhibition of tetraketide lactone 2 formation [11, 12]: No inhibitory effect | inhibition of tetraketide lactone 2 formation [11, 13]: no such effect

— patent publication US7001748B2, “Methods of making polyketides using hybrid polyketide synthases” (The Board of Trustees of the Leland Stanford Junior …, priority 1999, dated 2006)
